Assays:
[1] = test system: murine neuroblastoma cell line N2a; assay: Anti-tumor effect of recombinant murine PDS5A protein in tumor-bearing mouse, therapeutic model, N2a; format: in vivo, A/J mice
Protocol: (§1) The murine neuroblastoma cell line N2a was subcutaneously transplanted to A/J mice (7 weeks old, male, purchased from Japan SLC) in an amount of 1×10^6 cells. When the tumor volume reached an average of 50 to 100 mm^3 (typically 7 days after the inoculation of the tumor), the mice were randomly divided into groups each of which contains 10 individuals, and subjected to evaluation of the anti-tumor effect of the recombinant murine PDS5A protein (therapeutic model). With 100 μg (0.5 ml) of the recombinant murine PDS5A protein purified as described above, 50 μg of poly I:C was mixed to prepare a therapeutic agent for cancer, and this therapeutic agent was subcutaneously administered to the tumor-bearing mice a total of 3 times at intervals of 1 week. […] On the other hand, in the negative control group to which PBS(−) was administered and the group to which poly I:C alone (50 μg) was administered, the mean tumor volumes on Day 31 after the administration were 1657 mm^3 and 932 mm^3, respectively.

[2] = test system: murine neuroblastoma cell line N2a; assay: Anti-tumor effect of recombinant murine PDS5A protein, prophylactic model, N2a; format: in vivo, A/J mice
Protocol: (§2) Further, a therapeutic agent for cancer wherein 100 μg (0.5 ml) of the recombinant murine PDS5A protein and 50 μg poly I:C were mixed was prepared, and subcutaneously administered to A/J mice a total of 3 times at intervals of 1 week, followed by transplantation of 1×10^6 N2a cells to the mice and evaluation of the anti-tumor effect (prophylactic model). Ten individuals were included in each group, and, as controls for comparison, a negative control group to which PBS(−) was administered and a group to which poly I:C alone (50 μg) was administered were provided. […] On the other hand, in the negative control group to which PBS(−) was administered and the group to which poly I:C alone (50 μg) was administered, the mean tumor volumes on Day 40 after the administration were 1989 mm^3 and 1843 mm^3, respectively.

[3] = test system: colon cancer cell line CT26; assay: Anti-tumor effect of recombinant murine PDS5A protein in tumor-bearing mouse, therapeutic model, CT26; format: in vivo, Balb/c mice
Protocol: as §1, with “same experiment was carried out also for a colon cancer model. The colon cancer” for “murine neuroblastoma”, “CT26” for “N2a”, “Balb/c” for “A/J”, “24” for “31”, “1449” for “1657”, “835” for “932”

[4] = test system: colon cancer cell line CT26; assay: Anti-tumor effect of recombinant murine PDS5A protein, prophylactic model, CT26; format: in vivo, Balb/c mice
Protocol: as §2, with “Balb/c” for “A/J”, “CT26” for “N2a”, “31” for “40”, “1781” for “1989”, “1675” for “1843”

mammary gland tumor = assay: Anti-tumor effect of recombinant PDS5A protein in tumor-bearing dog, mammary gland tumor; format: in vivo; details: 500 μg protein with same amount of Freund's incomplete adjuvant, regional lymph node near tumor, 3 times at 1-week intervals; tumor about 500 mm^3 (dog-derived) or 1000 mm^3 (human-derived) at administration
Protocol: The anti-tumor effect of the recombinant protein described in Example 5 below in 3 individuals of tumor-bearing patient dogs (3 individuals having a mammary gland tumor) having a tumor mass in the epidermis was evaluated. Before administration, the antibody titer against the recombinant protein in the serum of each patient dog was measured by the method described in Example 5 (3), and, as a result, an antibody titer higher than that of a healthy dog was detected.
With 500 μg (2.5 ml) each of the recombinant PDS5A proteins (dog-derived and human-derived) purified as described above, the same amount of Freund's incomplete adjuvant (manufactured by Wako Pure Chemical Industries, Ltd.) was mixed to prepare 2 kinds of therapeutic agents for cancer, each of which was administered to a regional lymph node in the vicinity of the tumor a total of 3 times at 1-week intervals. […] On the other hand, in the negative control group to which PBS(−) was administered, the tumor volume, which had been about 800 mm^3 at the time of administration of PBS, became 1625 mm^3 on Day 21 after the administration.

[5] = Day 31 after the administration, poly I:C alone 50 μg

Molecule: poly I:C [reference compound]
- mean tumor volume [1, 5]: 932 mm^3
- mean tumor volume ([2]; Day 40 after the administration, poly I:C alone 50 μg): 1843 mm^3
- mean tumor volume ([3]; Day 24 after the administration, poly I:C alone 50 μg): 835 mm^3
- mean tumor volume [4, 5]: 1675 mm^3

B1: human PDS5A protein (SEQ ID NO:44): full-length human PDS5A (SEQ ID NO:44) expressed in E. coli; given mixed with Freund's incomplete adjuvant (protein, listed as Homo sapiens)
chain: MDFTAQPKPATALCGVVSADGKIAYPPGVKEITDKITTDEMIKRLKMVVKTFMDMDQDSEDEKQQYLPLALHLASEFFLRNPNKDVRLLVACCLADIFRIYAPEAPYTSHDKLKDIFLFITRQLKGLEDTKSPQFNRYFYLLENLAWVKSYNICFELEDCNEIFIQLFRTLFSVINNSHNKKVQMHMLDLMSSIIMEGDGVTQELLDSILINLIPAHKNLNKQSFDLAKVLLKRTVQTIEACIANFFNQVLVLGRSSVSDLSEHVFDLIQELFAIDPHLLLSVMPQLEFKLKSNDGEERLAVVRLLAKLFGSKDSDLATQNRPLWQCFLGRFNDIHVPVRLESVKFASHCLMNHPDLAKDLTEYLKVRSHDPEEAIRHDVIVTIITAAKRDLALVNDQLLGFVRERTLDKRWRVRKEAMMGLAQLYKKYCLHGEAGKEAAEKVSWIKDKLLHIYYQNSIDDKLLVEKIFAQYLVPHNLETEERMKCLYYLYASLDPNAVKALNEMWKCQNMLRSHVRELLDLHKQPTSEANCSAMFGKLMTIAKNLPDPGKAQDFVKKFNQVLGDDEKLRSQLELLISPTCSCKQADICVREIARKLANPKQPTNPFLEMVKFLLERIAPVHIDSEAISALVKLMNKSIEGTADDEEEGVSPDTAIRSGLELLKVLSFTHPTSFHSAETYESLLQCLRMEDDKVAEAAIQIFRNTGHKIETDLPQIRSTLIPILHQKAKRGTPHQAKQAVHCIHAIFTNKEVQLAQIFEPLSRSLNADVPEQLITPLVSLGHISMLAPDQFASPMKSVVANFIVKDLLMNDRSTGEKNGKLWSPDEEVSPEVLAKVQAIKLLVRWLLGMKNNQSKSANSTLRLLSAMLVSEGDLTEQKRISKSDMSRLRLAAGSAIMKLAQEPCYHEIITPEQFQLCALVINDECYQVRQIFAQKLHKALVKLLLPLEYMAIFALCAKDPVKERRAHARQCLLKNISIRREYIKQNPMATEKLLSLLPEYVVPYMIHLLAHDPDFTRSQDVDQLRDIKECLWFMLEVLMTKNENNSHAFMKKMAENIKLTRDAQSPDESKTNEKLYTVCDVALCVINSKSALCNADSPKDPVLPMKFFTQPEKDFCNDKSYISEETRVLLLTGKPKPAGVLGAVNKPLSATGRKPYVRSTGTETGSNINVNSELNPSTGNRSREQSSEAAETGVSENEENPVRIISVTPVKNIDPVKNKEINSDQATQGNISSDRGKKRTVTAAGAENIQQKTDEKVDESGPPAPSKPRRGRRPKSESQGNATKNDDLNKPINKGRKRAAVGQESPGGLEAGNAKAPKLQDLAKKAAPAERQIDLQR
modifications: mixed with Freund's incomplete adjuvant
- day on which complete regression of the tumor was achieved (mammary gland tumor): 21 days

B2: recombinant murine PDS5A protein: full-length murine PDS5A (SEQ ID NO:6) expressed in E. coli, His tag cleaved; given mixed with poly I:C (protein, listed as Mus musculus)
chain: MDFTQPKPATALCGVVSADGKIAYPPGVKEITDKITTDEMIKRLKMVVKTFMDMDQDSEDEKQQYLPLALHLASEFFLRNPNKDVRLLVACCLADIFRIYAPEAPYTSHDKLKDIFLFITRQLKGLEDTKSPQFNRYFYLLENLAWVKSYNICFELEDCNEIFIQLFRTLFSVINNSHNTKVQMHMLDLMSSIIMEGDGVTQELLDSILINLIPAHKNLNKQSFDLAKVLLKRTVQTIEACIANFFNQVLVLGRSSVSDLSEHVFDLIQELFAIDPQLLLSVMPQLEFKLKSNDGEERLAVVRLLAKLFGSKDSDLATQNRPLWQCFLGRFNDIHVPVRLESVKFASHCLMNHPDLAKDLTEYLKVRSHDPEEAIRHDVIVTIITAAKRDLALVNDQLLGFVRERTLDKRWRVRKEAMMGLAQLYKKYCLHGEAGKEAAEKVSWIKDKLLHIYYQNSIDDKLLVEKIFAQYLVPHNLETEERMKCLYYLYASLDPNAVKALNEMWKCQNMLRSHVRELLDLHKQPTSEANCSAMFGKLMTIAKNLPDPGKAQDFVKKFNQVLGDDEKLRSQLELLISPTCSCKQADVCVREIARKLANPKQPTNPFLEMVKFLLERIAPVHIDSEAISALVKLMNKSIEGTADDEEEGVSPDSAIRSGLELLKVLSFTHPTSFHSAETYESLLQCLRMEDDKVAEAAIQIFRNTGHKIETDLPQIRSTLIPILHQKAKRGTPHQAKQAVHCIHAIFSNKEVQLAQIFEPLSRSLNADVPEQLITPLVSLGHISMLAPDQFASPMKSVVANFIVKDLLMNDRSTGEKNGKLWSPDEEVSPEVLAKVQAIKLLVRWLLGMKNNQSKSANSTLRLLSAMLVSEGDLTEQKRISKSDMSRLRLAAGSAIMKLAQEPCYHEIITPEQFQLCALVINDECYQVRQIFAQKLHKALVKLLLPLEYMAIFALCAKDPVKERRAHARQCLLKNISIRREYIKQNPMATEKLLSLLPEYVVPYMIHLLAHDPDFTRSQDVDQLRDIKECLWFMLEVLMTKNENNSHAFMKKMAENIKLTRDAQSPDESKTNEKLYTVCDVALCVINSKSALCNADSPKDPVLPMKFFTQPEKDFCNDKSYISEETRVLLLTGKPKPTGVLGTVNKPLSATGRKPYVRSAGTETGSNINANSELSPSAGSRSREQSSEASETGVSENEENPVRIISVTPVKNIDTVKNKEINSDQSTQGNISSDRGKKRIVTAAGAENIQKPDEKVDESGPPAPSKPRRGRRPKSESQGNATKNDDLNKPVSKGRKRAAGSQESLEAGNAKAPKLQDGAKKAVPAERQIDLQR
modifications: mixed with poly I:C
- tumor outcome ([1]; Day 31, 100 μg protein mixed with 50 μg poly I:C, subcutaneous, 3 times at intervals of 1 week, PBS(−) group 1657 mm^3): complete regression of the tumor
- tumor outcome ([2]; Day 40, 100 μg protein mixed with 50 μg poly I:C, subcutaneous, 3 times at intervals of 1 week before N2a transplantation, PBS(−) group 1989 mm^3): no development of a tumor
- tumor outcome ([3]; Day 24, 100 μg protein mixed with 50 μg poly I:C, subcutaneous, 3 times at intervals of 1 week, PBS(−) group 1449 mm^3): complete regression of the tumor
- tumor outcome ([4]; Day 31, 100 μg protein mixed with 50 μg poly I:C, subcutaneous, 3 times at intervals of 1 week before CT26 transplantation, PBS(−) group 1781 mm^3): no development of a tumor

Reference: US10251942B2, “Immunity-inducing agent” (TORAY INDUSTRIES, INC., priority 2009, dated 2019)
